Substrate: O=[N+]([O-])c1ccc(OP(=O)(O)O)cc1
Assay: purified protein
Conditions: pH 8.0, 100 mM Tris-HCl, 1 mM MgCl2, 10 °C, no added NaCl

B1: Vibrio alkaline phosphatase (VAP) (Vibrio sp. G15-21) (protein)
chain: AEIKNVILMIGDGMGPQQVGLLETYANQAPNSIYKGNKTAIYQLAQEGVIGSSLTHPEDAIVVDSACSATMLATGIYSSSEVIGIDSQGNHVETVLEKAKKAGKATGLVSDTRLTHATPASFAAHQPHRSLENQIASDMLATGADVMLSGGLRHWIPKSTNDKGETYKQLEKLTQGDVYLKSKRKDDRNLLTEAEKDGYQLAFNRNMLDDAKGDKLLGLFAYSGMDDGIAYSNKKKSGERTQPSLKEMTQKALNILSKDEDGFFLMVEGGQIDWAGHSNDAGTMLHELLKFDEAIQTVYEWAKDREDTIVIVTADHETGSFGFSYSSNDLPKPQKRSGEAFADRDYAPNFNFGAFDILDGLYNQKQSYYGMISEFQKLDKSLQTPEKLAEIVNKNSEFPITAEQAKNVLASKPNPYRLAQHKYLSAEEVPAINDFDAFFPYNDRGNLLAREQATGQNIVWGTGTHTHTPVNVFAWGPAEKILPVSKIMHHSELGEYIKQQVN
Km: 7.6 ± 1.8 µM | kcat: 231 ± 15 s⁻¹
